In data set [1] the target is Sac10b2 (Sulfolobus acidocaldarius). Nature of the data set: AUC.
The data set “AUC” deals with the molecule itself. Nature of the data set: AUC.

Changes are numbered by the printed parent chain. Numbers in names are those of the source.

The term stoichiometry N denotes the number of molecules, sites or subunits per partner or assembly.

As for Sac10b2 (natural protein), the stoichiometry N in data set [1] came out at 2.

B1: Sac10b1 (natural protein, Sulfolobus acidocaldarius)
chain: MSSGATPSNVVLVGKKPVMNYVLAALTLLNQGVSEITIKARGRAISKAVDTVEIVRNRFLPDKIEVKEIRIGSQVVTSQDGRQSRVSTIEIGIRKKA
In the case of B1, the “stoichiometry N” value in the data set “AUC” was determined as 2.

B2: Sac10b1 F59A (natural protein, Sulfolobus acidocaldarius)
chain: B1 chain with F59A
Regarding B2, the “stoichiometry N” value in the data set “AUC” came to 2.

B3: Sac10b1 R58A (natural protein, Sulfolobus acidocaldarius)
chain: B1 chain with R58A
Turning to B3, the binding result in “AUC” is recorded as “binds”.

The values are drawn from PMC11167270 (Heliyon, 2024).
